{"source": "paper PMC6451107", "about": "“Structural insights reveal the specific recognition of roX RNA by the dsRNA-binding domains of the RNA helicase MLE and its indispensable role in dosage compensation in Drosophila”", "binders": {"B1": {"name": "R2H1 55mer (FAM) (structured_RNA)", "RNA": "GCUUUAGAGAUCGUUUCGAAUCACAUUGAUAAUCGUUCGAAACGUUCUCCGAAGC"}, "B2": {"name": "R2H1 U124A (structured_RNA)", "RNA": "B1 RNA with U11A"}, "B3": {"name": "R2H1 U134C/C135G (structured_RNA)", "RNA": "B1 RNA with U21C, C22G"}, "B4": {"name": "R2H1 U118C/A119G (structured_RNA)", "RNA": "B1 RNA with U5C, A6G"}}, "assay_in_all_cases": "fluorescence polarization; FP: 80 nM 3'-FAM RNA stock mixed 1:1 with protein, buffer D (composition not in material), 15 min, 20 C; EMSA: 1200 nM RNA stock mixed 1:1 with protein, buffer", "key": {"[1]": {"target": "MLE dsRBD1+2 N223A/K224A/K225A (Drosophila, UniProt P24785 1-264, N223A;K224A;K225A)", "details": "protein: recombinant; tags: SUMO tag removed by ULP1; label: 3'-FAM; hairpin, 13 nt loop (C135-C147)"}, "MLE dsRBD1+2 H196A": {"target": "MLE dsRBD1+2 H196A (Drosophila, UniProt P24785 1-264, H196A)", "details": "protein: recombinant; tags: SUMO tag removed by ULP1; label: 3'-FAM; hairpin, 13 nt loop (C135-C147)"}, "MLE dsRBD1+2 K171A": {"target": "MLE dsRBD1+2 K171A (Drosophila, UniProt P24785 1-264, K171A)", "details": "protein: recombinant; tags: SUMO tag removed by ULP1; label: 3'-FAM; hairpin, 13 nt loop (C135-C147)"}, "MLE dsRBD1+2 K4E/S5A": {"target": "MLE dsRBD1+2 K4E/S5A (Drosophila, UniProt P24785 1-264, K4E;S5A)", "details": "protein: recombinant; tags: SUMO tag removed by ULP1; label: 3'-FAM; hairpin, 13 nt loop (C135-C147)"}, "MLE dsRBD1+2 S5A": {"target": "MLE dsRBD1+2 S5A (Drosophila, UniProt P24785 1-264, S5A)", "details": "protein: recombinant; tags: SUMO tag removed by ULP1; label: 3'-FAM; hairpin, 13 nt loop (C135-C147)"}, "MLE dsRBD1+2 K229A": {"target": "MLE dsRBD1+2 K229A (Drosophila, UniProt P24785 1-264, K229A)", "details": "protein: recombinant; tags: SUMO tag removed by ULP1; label: 3'-FAM; hairpin, 13 nt loop (C135-C147)"}, "[2]": {"target": "MLE dsRBD1+2 N52A/K53E/K54E/K58E (Drosophila, UniProt P24785 1-264, N52A;K53E;K54E;K58E)", "details": "protein: recombinant; tags: SUMO tag removed by ULP1; label: 3'-FAM; hairpin, 13 nt loop (C135-C147)"}, "MLE dsRBD1+2 K171E": {"target": "MLE dsRBD1+2 K171E (Drosophila, UniProt P24785 1-264, K171E)", "details": "protein: recombinant; tags: SUMO tag removed by ULP1; label: 3'-FAM; hairpin, 13 nt loop (C135-C147)"}, "[3]": {"target": "MLE dsRBD1+2 N223A/K224E/K225E/K229E (Drosophila, UniProt P24785 1-264, N223A;K224E;K225E;K229E)", "details": "protein: recombinant; tags: SUMO tag removed by ULP1; label: 3'-FAM; hairpin, 13 nt loop (C135-C147)"}, "MLE dsRBD1+2 K4A": {"target": "MLE dsRBD1+2 K4A (Drosophila, UniProt P24785 1-264, K4A)", "details": "protein: recombinant; tags: SUMO tag removed by ULP1; label: 3'-FAM; hairpin, 13 nt loop (C135-C147)"}, "[4]": {"target": "MLE dsRBD1+2 N52A/K53A/K54A (Drosophila, UniProt P24785 1-264, N52A;K53A;K54A)", "details": "protein: recombinant; tags: SUMO tag removed by ULP1; label: 3'-FAM; hairpin, 13 nt loop (C135-C147)"}, "MLE dsRBD1+2 K4E": {"target": "MLE dsRBD1+2 K4E (Drosophila, UniProt P24785 1-264, K4E)", "details": "protein: recombinant; tags: SUMO tag removed by ULP1; label: 3'-FAM; hairpin, 13 nt loop (C135-C147)"}, "MLE dsRBD1+2 K4A/S5A": {"target": "MLE dsRBD1+2 K4A/S5A (Drosophila, UniProt P24785 1-264, K4A;S5A)", "details": "protein: recombinant; tags: SUMO tag removed by ULP1; label: 3'-FAM; hairpin, 13 nt loop (C135-C147)"}, "MLE dsRBD1+2 H196E": {"target": "MLE dsRBD1+2 H196E (Drosophila, UniProt P24785 1-264, H196E)", "details": "protein: recombinant; tags: SUMO tag removed by ULP1; label: 3'-FAM; hairpin, 13 nt loop (C135-C147)"}, "MLE dsRBD1+2 K171E/N175A": {"target": "MLE dsRBD1+2 K171E/N175A (Drosophila, UniProt P24785 1-264, K171E;N175A)", "details": "protein: recombinant; tags: SUMO tag removed by ULP1; label: 3'-FAM; hairpin, 13 nt loop (C135-C147)"}, "MLE dsRBD1+2 N175A": {"target": "MLE dsRBD1+2 N175A (Drosophila, UniProt P24785 1-264, N175A)", "details": "protein: recombinant; tags: SUMO tag removed by ULP1; label: 3'-FAM; hairpin, 13 nt loop (C135-C147)"}, "MLE dsRBD1+2 WT": {"target": "MLE dsRBD1+2 WT (Drosophila, UniProt P24785 1-264)", "details": "protein: recombinant, tags: SUMO tag (N-terminal, with Ni-NTA purification) removed by ULP1, label: 3'-FAM, hairpin"}, "MLE dsRBD1+2 E195A": {"target": "MLE dsRBD1+2 E195A (Drosophila, UniProt P24785 1-264, E195A)", "details": "protein: recombinant; tags: SUMO tag removed by ULP1; label: 3'-FAM; hairpin, 13 nt loop (C135-C147)"}, "MLE dsRBD1+2 K58A": {"target": "MLE dsRBD1+2 K58A (Drosophila, UniProt P24785 1-264, K58A)", "details": "protein: recombinant; tags: SUMO tag removed by ULP1; label: 3'-FAM; hairpin, 13 nt loop (C135-C147)"}, "MLE dsRBD1+2 E172A": {"target": "MLE dsRBD1+2 E172A (Drosophila, UniProt P24785 1-264, E172A)", "details": "protein: recombinant; tags: SUMO tag removed by ULP1; label: 3'-FAM; hairpin, 13 nt loop (C135-C147)"}, "MLE dsRBD1+2 N29A": {"target": "MLE dsRBD1+2 N29A (Drosophila, UniProt P24785 1-264, N29A)", "details": "protein: recombinant; tags: SUMO tag removed by ULP1; label: 3'-FAM; hairpin, 13 nt loop (C135-C147)"}, "MLE dsRBD2": {"target": "MLE dsRBD2 (Drosophila, UniProt P24785 152-264)", "details": "protein: recombinant; tags: SUMO tag removed by ULP1; label: 3'-FAM; hairpin, 13 nt loop (C135-C147)"}, "MLE dsRBD1": {"target": "MLE dsRBD1 (Drosophila, UniProt P24785 1-87)", "details": "protein: recombinant; tags: SUMO tag removed by ULP1; label: 3'-FAM; hairpin, 13 nt loop (C135-C147)"}}, "note": "Numbering of substitutions follows the chain as printed. Names may count otherwise."}
{"binder": "B1", "values": [{"measurement": "Kd", "setting": "[1]", "value": "18.9 ± 1.45", "unit": "µM"}, {"measurement": "Kd", "setting": "MLE dsRBD1+2 H196A", "value": "3.02 ± 0.2", "unit": "µM"}, {"measurement": "Kd", "setting": "MLE dsRBD1+2 K171A", "value": "4.58 ± 0.68", "unit": "µM"}, {"measurement": "Kd", "setting": "MLE dsRBD1+2 K4E/S5A", "value": "8.05 ± 0.34", "unit": "µM"}, {"measurement": "Kd", "setting": "MLE dsRBD1+2 S5A", "value": "1.8 ± 0.24", "unit": "µM"}, {"measurement": "Kd", "setting": "MLE dsRBD1+2 K229A", "value": "0.88 ± 0.18", "unit": "µM"}, {"measurement": "Kd", "setting": "[2]", "value": "12.5 ± 1.51", "unit": "µM"}, {"measurement": "Kd", "setting": "MLE dsRBD1+2 K171E", "value": "8.21 ± 0.26", "unit": "µM"}, {"measurement": "Kd", "setting": "[3]", "value": "60.1 ± 6.55", "unit": "µM"}, {"measurement": "Kd", "setting": "MLE dsRBD1+2 K4A", "value": "4.18 ± 0.27", "unit": "µM"}, {"measurement": "Kd", "setting": "[4]", "value": "7.7 ± 0.36", "unit": "µM"}, {"measurement": "Kd", "setting": "MLE dsRBD1+2 K4E", "value": "6.55 ± 0.56", "unit": "µM"}, {"measurement": "Kd", "setting": "MLE dsRBD1+2 K4A/S5A", "value": "4.49 ± 0.54", "unit": "µM"}, {"measurement": "Kd", "setting": "MLE dsRBD1+2 H196E", "value": "7.24 ± 0.65", "unit": "µM"}, {"measurement": "Kd", "setting": "MLE dsRBD1+2 K171E/N175A", "value": "10.3 ± 1.14", "unit": "µM"}, {"measurement": "Kd", "setting": "MLE dsRBD1+2 N175A", "value": "1.31 ± 0.26", "unit": "µM"}, {"measurement": "Kd", "setting": "MLE dsRBD1+2 WT; 13 nt loop (C135-C147)", "value": "0.2 ± 0.03", "unit": "µM"}, {"measurement": "Kd", "setting": "MLE dsRBD1+2 E195A", "value": "0.15 ± 0.03", "unit": "µM"}, {"measurement": "Kd", "setting": "MLE dsRBD1+2 K58A", "value": "2.38 ± 0.13", "unit": "µM"}, {"measurement": "Kd", "setting": "MLE dsRBD1+2 E172A", "value": "0.18 ± 0.04", "unit": "µM"}, {"measurement": "Kd", "setting": "MLE dsRBD1+2 N29A", "value": "0.43 ± 0.07", "unit": "µM"}, {"measurement": "binding signal", "setting": "MLE dsRBD2", "value": "~4.5", "unit": "fold weaker than dsRBD1+2"}, {"measurement": "binding signal", "setting": "MLE dsRBD1", "value": "~44", "unit": "fold weaker than dsRBD1+2"}]}
{"binder": "B2", "values": [{"measurement": "Kd", "setting": "MLE dsRBD1+2 WT", "value": "1.03 ± 0.12", "unit": "µM"}]}
{"binder": "B3", "values": [{"measurement": "Kd", "setting": "MLE dsRBD1+2 WT", "value": "0.43 ± 0.05", "unit": "µM"}]}
{"binder": "B4", "values": [{"measurement": "Kd", "setting": "MLE dsRBD1+2 WT", "value": "0.42 ± 0.06", "unit": "µM"}]}
